Measured values taken from patent EP4745157A1 (Korea Research Institute of Bioscience and Biotechnology, dated 2026).
Where a chain is given by its changes, count along the chain named.

Legend:
[1] = target: T1, TM4SF5-Fc antigen protein (UniProt O14894); assay: Biacore, TM4SF5-Fc immobilized directly on the chip
T1 sequence (looked up): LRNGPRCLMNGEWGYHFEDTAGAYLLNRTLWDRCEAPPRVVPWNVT

[2] = target: T2, TM4SF5 (antigen of SPR/BIACORE/ELISA, construct not stated) (UniProt O14894); assay: BIACORE
T2 sequence (looked up): T1 sequence (looked up)

[3] = target: T3, hEC2-Fc-myc antigen (human) (UniProt O14894); assay: Octet (BLI), IgG against hEC2-Fc-myc
T3 sequence (looked up): T1 sequence (looked up)

[4] = target: T4, TM4SF5 (antigen of SPR/BIACORE/ELISA, construct not stated) (UniProt O14894 112-157, limits assumed); assay: SPR
T4 construct: also called TM4SF5 target
T4 chain (looked up): T1 sequence (looked up)

[5] = target: T2, TM4SF5 (antigen of SPR/BIACORE/ELISA, construct not stated); assay: SPR
[6] = target: T3, hEC2-Fc-myc antigen (human); assay: ELISA, IgG against hEC2-Fc-myc

B1: huAb27-9_E01 IgG (antibody, V domains shown)
VH: EVQLVQSGADVKEPGASVKVSCKASGYTFTDYEMHWVRQAPGQGLEWMGAIDPETGGTAYNQKFKGWVTMTADKSISTAYMELSRLRSDDTAVYYCTRPYLGYWGQGTLVTVSS
VL: EIVLTQSPGMLSLSPGERATLSCRSSQSLVHRNGNTYLHWYQQKPGQAPRLLIYKVSNRFSGIPDRFSGSGSGTDFTLTISRLEPEDFAVYYCFQGSHIPLTFGQGTKVEIKR
Work on B1 yielded a fold improvement of antigen-binding affinity against parent huAb27-9 [1] of 3 fold.

B2: S43 (G2) (antibody, V domains shown, not shown: a dimerising Fc or GST)
VH: B1 VH with E1Q, D10E, E13K, T28R, E54A, T55F, W67R, T97A
VL: B1 VL with M10T, R32S, R113G
In the case of B2, the fold reduction in affinity against S43 [2] is reported as 1.5 fold.

B3: 1-5 IgG (antibody, V domains shown)
VH: B1 VH with E1Q, D10E, E13K, A59F, Y60V, N61K, Q62R, W67R, T97A
VL: EIVLTQSPGTLSLSPGERATLSCRSSQSLVHSNGNTYLHWYQQKPGQAPRLLIYKVSNRFSGIPDRFSGSGSGTDFTLTISRLEPEDFAVYYCFQGSHIPLTFGQGTKVEIK
notes: IgG; also called T1-5
For B3, the fold improvement of KD relative to huAb27-9 [3] was 7.7 fold, the Kd [4] was 3.94 nM and the “fold improvement of KD against chimeric Ab27” value [4] was about 4 fold. The “fold improvement of KD against humanized Ab27-hz9” value [4] was about 2.4 fold.

B4: EO1 H(G)L(GG) (antibody, V domains shown, not shown: a dimerising Fc or GST)
VH: B1 VH
VL: B1 VL with R113G
B4 was tested, and the fold improvement in affinity against EO1 [2] was 2 fold.

B5: huAb27-9 scFv-Fc (Fc fusion, part only; not given: linker, domain order, hinge-Fc, not shown: another chain or arm of the molecule; a dimerising Fc or GST; small tags and cut ends)
VH: B1 VH with E1Q, D10E, E13K, W67R, T97A
VL: B3 VL
For B5, the Kd [5] was 7.23 nM and the fold difference in affinity against Ab27 scFv-Fc [5] was 1.4 fold.

B6: 2-1 IgG (antibody, V domains shown)
VH: B1 VH with E1Q, D10E, E13K, A59F, Y60V, N61V, Q62S, W67R, T97A
VL: B3 VL
For B6, the fold improvement of KD relative to huAb27-9 [3] was 12.6 fold and the fold improvement of EC50 relative to huAb27-9 [6] was 41.4 fold.

B7: S43 IgG (antibody, V domains shown)
VH: B1 VH with E1Q, D10E, E13K, T28R, E54A, T55F, W67R, T97A
VL: B3 VL
notes: IgG1; also called huAb27-9_M74; M74
With B7 the Kd [4] was 4.19 nM, the “fold improvement of KD against chimeric Ab27” value [4] was about 4 fold and the “fold improvement of KD against humanized Ab27-hz9” value [4] was about 2.4 fold.

B8: huAb27-9 IgG (antibody, V domains shown)
VH: B1 VH with E1Q, D10E, E13K, W67R, T97A
VL: B1 VL with M10T, R32S
notes: IgG1 format; also called Hz#9 IgG; Hz #9 IgG
In the case of B8, the Kd [4] is reported as 9.46 nM.
